Measured values: PMC3958483, “Fine Specificity and Molecular Competition in SLAM Family Receptor Signalling” (PLoS ONE, 2014)

System: NK92 cells
Experiment: IFNγ production by NK92 cells
Assay type: cell-based, human
Settings: TJW, unpublished

B1: PLCγ2: phospholipase C gamma-2 (protein)
chain: MSTTVNVDSLAEYEKSQIKRALELGTVMTVFSFRKSTPERRTVQVIMETRQVAWSKTADKIEGFLDIMEIKEIRPGKNSKDFERAKAVRQKEDCCFTILYGTQFVLSTLSLAADSKEDAVNWLSGLKILHQEAMNASTPTIIESWLRKQIYSVDQTRRNSISLRELKTILPLINFKVSSAKFLKDKFVEIGAHKDELSFEQFHLFYKKLMFEQQKSILDEFKKDSSVFILGNTDRPDASAVYLHDFQRFLIHEQQEHWAQDLNKVRERMTKFIDDTMRETAEPFLFVDEFLTYLFSRENSIWDEKYDAVDMQDMNNPLSHYWISSSHNTYLTGDQLRSESSPEAYIRCLRMGCRCIELDCWDGPDGKPVIYHGWTRTTKIKFDDVVQAIKDHAFVTSSFPVILSIEEHCSVEQQRHMAKAFKEVFGDLLLTKPTEASADQLPSPSQLREKIIIKHKKLGPRGDVDVNMEDKKDEHKQQGELYMWDSIDQKWTRHYCAIADAKLSFSDDIEQTMEEEVPQDIPPTELHFGEKWFHKKVEKRTSAEKLLQEYCMETGGKDGTFLVRESETFPNDYTLSFWRSGRVQHCRIRSTMEGGTLKYYLTDNLTFSSIYALIQHYRETHLRCAEFELRLTDPVPNPNPHESKPWYYDSLSRGEAEDMLMRIPRDGAFLIRKREGSDSYAITFRARGKVKHCRINRDGRHFVLGTSAYFESLVELVSYYEKHSLYRKMRLRYPVTPELLERYNMERDINSLYDVSRMYVDPSEINPSMPQRTVKALYDYKAKRSDELSFCRGALIHNVSKEPGGWWKGDYGTRIQQYFPSNYVEDISTADFEELEKQIIEDNPLGSLCRGILDLNTYNVVKAPQGKNQKSFVFILEPKQQGDPPVEFATDRVEELFEWFQSIREITWKIDTKENNMKYWEKNQSIAIELSDLVVYCKPTSKTKDNLENPDFREIRSFVETKADSIIRQKPVDLLKYNQKGLTRVYPKGQRVDSSNYDPFRLWLCGSQMVALNFQTADKYMQMNHALFSLNGRTGYVLQPESMRTEKYDPMPPESQRKILMTLTVKVLGARHLPKLGRSIACPFVEVEICGAEYDNNKFKTTVVNDNGLSPIWAPTQEKVTFEIYDPNLAFLRFVVYEEDMFSDPNFLAHATYPIKAVKSGFRSVPLKNGYSEDIELASLLVFCEMRPVLESEEELYSSCRQLRRRQEELNNQLFLYDTHQNLRNANRDALVKEFSVNENQLQLYQEKCNKRLREKRVSNSKFYS
In the case of B1, the “effect on IFNγ production by NK92 cells” value is reported as “activating”.
